Substitutions are numbered along the chain they refer to. In names and notes the source's numbering stands. Entries after “also recorded” stand apart in the source; their conditions may differ.

This note sets out measurements from patent publication US9175313B2, “Three-dimensional structure of isoprene synthase and its use thereof for generating variants” (Danisco US Inc., priority 2009, dated 2015).

Data set [1] is described as follows: DMAPP assay of site evaluation library (SEL) lysates with ELISA protein quantitation: specific activity ranked as performance index. Type of data set: biochemical. As to conditions: for isoprene synthase activity of variants relative to parent, in words: SEL analysis of P. alba IspS; for performance index: primary SEL screen, activity on DMAPP per unit weight relative to the parental molecule (parent = 1). In short, it runs like this:
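Induced E. coli cell pellets lysed in 50 mM Tris pH 8, 25 mM MgCl2, lysozyme, DNase I; 10-fold diluted supernatant reacted with DMAPP (20 mM working stock in 0.1 M phosphate pH 8.2) at 25° C for 30 min, stopped at 70° C for 12 min. Isoprene in headspace quantified by GC-MS.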

A short description of data set [2]: Small scale expression and yield of purified 6xHis-tagged IspS variants. Conditions: BL21(λDE3)pLysS, 100 mL cultures. How it is done:
N-terminally 6×His-tagged wild type IspS, IspS-L494P, and IspS-T536F were expressed and purified from strains MD09-167, DW399, and DW363, respectively. The growth procedure is suitable for histidine tagged enzymes expressed in BL21(λDE3)pLysS cells. A 3 ml of overnight culture was prepared for each 100 mL of planned growth. The appropriate antibiotics ([…] kanamycin, […] chloramphenicol) were added to 3 ml of LB medium in a 10 ml glass tube and was inoculated with 1 colony from a fresh plate of cells or directly from glycerol frozen cell stock. Cultures were grown at 30° C. overnight with shaking at ˜220 rpm. Day cultures were prepared in 100 mL of LB medium with appropriate antibiotics for each culture. Each 100 mL day culture was inoculated with 50 μl of overnight culture and grown at 37° C. with shaking at ˜220 rpm until the OD600 reached ˜0.4-0.6. Day cultures were then induced with 400 μM IPTG and allowed to continue growing at 30° C. with shaking at 220 rpm for ˜5-6 hours. […] Following Harvest, cells were used directly or stored at −80° C. until ready to process. […]
To buffer exchange the protein into a buffer suitable for protein assays and storage, a PD-10 column (GE Healthcare) was equilibrated with 25 mL PD-10 buffer (50 mM HEPES, 0.05 M NaCl, pH 7.4). […] The eluate was then analyzed by absorbance at 280 nm and SDS-PAGE gel and the samples were stored at −80° C.

B1: L494P: P. alba IspS variant L494P; pDW101, strain DW399, SEQ ID NO: 69 (protein)
chain: MEARRSANYEPNSWDYDYLLSSDTDESIEVYKDKAKKLEAEVRREINNEKAEFLTLLELIDNVQRLGLGYRFESDIRGALDRFVSSGGFDAVTKTSLHGTALSFRLLRQHGFEVSQEAFSGFKDQNGNFLENLKEDIKAILSLYEASFLALEGENILDEAKVFAISHLKELSEEKIGKELAEQVNHALELPLHRRTQRLEAVWSIEAYRKKEDANQVLLELAILDYNMIQSVYQRDLRETSRWWRRVGLATKLHFARDRLIESFYWAVGVAFEPQYSDCRNSVAKMFSFVTIIDDIYDVYGTLDELELFTDAVERWDVNAINDLPDYMKLCFLALYNTINEIAYDNLKDKGENILPYLTKAWADLCNAFLQEAKWLYNKSTPTFDDYFGNAWKSSSGPLQLVFAYFAVVQNIKKEEIENLQKYHDTISRPSHIFRLCNDLASASAEIARGETANSVSCYMRTKGISEELATESVMNLIDETWKKMNKEKLGGSPFAKPFVETAINLARQSHCTYHNGDAHTSPDELTRKRVLSVITEPILPFERENLYFQGLEHHHHHH
As for B1, in data set [1], the “isoprene synthase activity of variants relative to parent, in words” value is listed as “improved activity; also recorded: high performing” and the performance index is on record as 2.64. In addition, in data set [2], the “expression level (yield of purified protein) compared to wild type, in words” value is reported as “expressed at higher levels than the wild type protein”.

B2: T536F: P. alba IspS variant T536F; pDW87, strain DW363, SEQ ID NO: 95 (protein)
chain: B1 chain with P494L, T536F
As to B2, in data set [1], the “isoprene synthase activity of variants relative to parent, in words” value was “improved isoprene synthase activity; also recorded: high performing” and the performance index is 3.60. Further, the “expression level (yield of purified protein) compared to wild type, in words” value in data set [2] was “expressed at higher levels than the wild type protein”.
